Source: US20200223925A1 (Hoffmann-La Roche, published 2020)

B1: Molecule E: FAP(4B9)-CD28(SA) 1+2 format (bispecific antibody, human IgG1, kappa, L234A L235A)
light: not shown
heavy 1: not shown
heavy 2: QVQLVQSGAEVKKPGASVKVSCKASGYTFTSYYIHWVRQAPGQGLEWIGCIYPGNVNTNYNEKFKDRATLTVDTSISTAYMELSRLRSDDTAVYFCTRSHYGLDWNFDVWGQGTTVTVSSASTKGPSVFPLAPSSKSTSGGTAALGCLVKDYFPEPVTVSWNSGALTSGVHTFPAVLQSSGLYSLSSVVTVPSSSLGTQTYICNVNHKPSNTKVDKKVEPKSCDKTHTCPPCPAPEAAGGPSVFLFPPKPKDTLMISRTPEVTCVVVDVSHEDPEVKFNWYVDGVEVHNAKTKPREEQYNSTYRVVSVLTVLHQDWLNGKEYKCKVSNKALGAPIEKTISKAKGQPREPQVCTLPPSRDELTKNQVSLSCAVKGFYPSDIAVEWESNGQPENNYKTTPPVLDSDGSFFLVSKLTVDKSRWQQGNVFSCSVMHEALHNHYTQKSLSLSPGGGGGSGGGGSGGGGSGGGGSEIVLTQSPGTLSLSPGERATLSCRASQSVTSSYLAWYQQKPGQAPRLLINVGSRRATGIPDRFSGSGSGTDFTLTISRLEPEDFAVYYCQQGIMLPPTFGQGTKVEIK
notes: bivalent anti-CD28(SA), monovalent anti-FAP (VH on knob chain, VL on hole chain), huIgG1 PG-LALA; also called P1AD9011; FAP-CD28(SA) 1+2
B2: CD28(SA)_variant_28 (antibody, human IgG1, kappa, L234A L235A)
heavy: not shown
light: not shown
chain: DKTHTCPPCPAPEAAGGPSVFLFPPKPKDTLMISRTPEVTCVVVDVSHEDPEVKFNWYVDGVEVHNAKTKPREEQYNSTYRVVSVLTVLHQDWLNGKEYKCKVSNKALGAPIEKTISKAKGQPREPQVCTLPPSRDELTKNQVSLSCAVKGFYPSDIAVEWESNGQPENNYKTTPPVLDSDGSFFLVSKLTVDKSRWQQGNVFSCSVMHEALHNRFTQKSLSLSP
notes: monovalent one-armed IgG-like construct; from supernatant; also called P1AE3084

Assays:
[1] = biological target: T1, human Fibroblast Activation Protein (FAP) (human, UniProt Q12884 1-760); assay: flow cytometry, 3T3-huFAP cells, PE anti-human IgG secondary, MFI
T1 construct: on 3T3-huFAP or MV3 cells in the functional assays; also called huFAP; 3T3-huFAP cells (clone 19)
Description: (§1) Binding was assessed by flow cytometry with a FACS Fortessa (BD, Software FACS Diva). Binding curves were obtained using GraphPadPrism6.

human CD28 = biological target: T2, human CD28 (human, UniProt P10747 19-220); assay: flow cytometry, CHO cells stably overexpressing human CD28, monovalent one-armed IgG from supernatant, PE anti-human IgG secondary, MFI
T2 construct: on primary human T cells in the functional assays; also called huCD28; CHO cells expressing human CD28
Description: as §1

| Binder | binding result [1] | binding result (human CD28) |
| --- | --- | --- |
| B1 | binds |  |
| B2 |  | binds |
